Measurements reported in patent US20200209240A1.

Experiments:
human CD19 (human) [1] = target: human CD19 (human) (UniProt P15391); assay: dSTORM, isotype control on NALM-6 cells (background), antibody at 0.05 µg/ml
human CD19 (human) [2] = target: human CD19 (human) (UniProt P15391); assay: dSTORM, isotype control on NALM-6 cells (background), antibody at 5 × 10^-3 µg/ml
human CD19 (human) [3] = target: human CD19 (human) (UniProt P15391); assay: dSTORM, isotype control on NALM-6 cells (background), antibody at 5 µg/ml
human CD19 (human) [4] = target: human CD19 (human) (UniProt P15391); assay: dSTORM, isotype control on NALM-6 cells (background), antibody at 2.5 µg/ml
human CD19 (human) [5] = target: human CD19 (human) (UniProt P15391); assay: dSTORM, isotype control on NALM-6 cells (background), antibody at 5 × 10^-5 µg/ml
human CD19 (human) [6] = target: human CD19 (human) (UniProt P15391); assay: dSTORM, isotype control on NALM-6 cells (background), antibody at 5 × 10^-4 µg/ml
human CD19 (human) [7] = target: human CD19 (human) (UniProt P15391); assay: dSTORM, isotype control on NALM-6 cells (background), antibody at 10 µg/ml
human CD19 (human) [8] = target: human CD19 (human) (UniProt P15391); assay: dSTORM, isotype control on NALM-6 cells (background), antibody at 0.5 µg/ml
human CD19 (human) [9] = target: human CD19 (human) (UniProt P15391); assay: dSTORM, antibody titration on NALM-6 cells, antibody at 5 × 10^-3 µg/ml
human CD19 (human) [10] = target: human CD19 (human) (UniProt P15391); assay: dSTORM, antibody titration on NALM-6 cells, antibody at 10 µg/ml
human CD19 (human) [11] = target: human CD19 (human) (UniProt P15391); assay: dSTORM, antibody titration on NALM-6 cells, antibody at 5 × 10^-4 µg/ml
human CD19 (human) [12] = target: human CD19 (human) (UniProt P15391); assay: dSTORM on NALM-6 cells, antibody at c≥2.5 µg/ml
human CD19 (human) [13] = target: human CD19 (human) (UniProt P15391); assay: dSTORM on NALM-6 cells, antibody at 5×10^-5 µg/ml
human CD19 (human) [14] = target: human CD19 (human) (UniProt P15391); assay: dSTORM, antibody titration on NALM-6 cells, antibody at 0.5 µg/ml
human CD19 (human) [15] = target: human CD19 (human) (UniProt P15391); assay: dSTORM, antibody titration on NALM-6 cells, antibody at 0.05 µg/ml
human CD19 (human) [16] = target: human CD19 (human) (UniProt P15391); assay: dSTORM, antibody titration on NALM-6 cells, antibody at 2.5 µg/ml
human CD19 (human) [17] = target: human CD19 (human) (UniProt P15391); assay: dSTORM, antibody titration on NALM-6 cells, antibody at 5 × 10^-5 µg/ml
human CD19 (human) [18] = target: human CD19 (human) (UniProt P15391); assay: dSTORM, antibody titration on NALM-6 cells, antibody at 5 µg/ml

UniProt P15391, sequence (P15391 20-556): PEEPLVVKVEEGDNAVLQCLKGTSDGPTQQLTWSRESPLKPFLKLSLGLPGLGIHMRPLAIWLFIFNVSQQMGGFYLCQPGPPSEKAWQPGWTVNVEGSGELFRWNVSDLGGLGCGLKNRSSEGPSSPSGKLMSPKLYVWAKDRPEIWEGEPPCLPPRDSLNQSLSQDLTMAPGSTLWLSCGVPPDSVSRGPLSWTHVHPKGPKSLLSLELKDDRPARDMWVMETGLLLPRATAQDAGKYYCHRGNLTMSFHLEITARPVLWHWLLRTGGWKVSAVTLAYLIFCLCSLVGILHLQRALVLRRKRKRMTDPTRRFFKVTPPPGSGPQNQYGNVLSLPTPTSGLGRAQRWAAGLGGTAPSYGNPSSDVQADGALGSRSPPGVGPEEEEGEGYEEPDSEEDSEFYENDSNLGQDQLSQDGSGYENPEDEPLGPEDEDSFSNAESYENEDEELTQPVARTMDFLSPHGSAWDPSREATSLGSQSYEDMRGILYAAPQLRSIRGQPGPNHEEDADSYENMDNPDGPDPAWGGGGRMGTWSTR

Substance	Molecules per cell (molecules per cell) (human CD19 (human) [1])	Molecules per cell (molecules per cell) (human CD19 (human) [2])	Molecules per cell (molecules per cell) (human CD19 (human) [3])	Molecules per cell (molecules per cell) (human CD19 (human) [4])	Molecules per cell (molecules per cell) (human CD19 (human) [5])	Molecules per cell (molecules per cell) (human CD19 (human) [6])	Molecules per cell (molecules per cell) (human CD19 (human) [7])	Molecules per cell (molecules per cell) (human CD19 (human) [8])	Molecules per cell (molecules per cell) (human CD19 (human) [9])	Molecules per cell (molecules per cell) (human CD19 (human) [10])	Molecules per cell (molecules per cell) (human CD19 (human) [11])	CD19 molecules/µm^2 under saturating conditions (CD19 molecules/µm^2) (human CD19 (human) [12])	CD19 molecules/µm^2 at the detection limit (CD19 molecules/µm^2) (human CD19 (human) [13])	Molecules per cell (molecules per cell) (human CD19 (human) [14])	Molecules per cell (molecules per cell) (human CD19 (human) [15])	Molecules per cell (molecules per cell) (human CD19 (human) [16])	Molecules per cell (molecules per cell) (human CD19 (human) [17])	Molecules per cell (molecules per cell) (human CD19 (human) [18])
AF647 isotype control antibody (BioLegend)	7.1	1.3	85	50	0	0.8	72	44	–	–	–	–	–	–	–	–	–	–
anti-CD19 antibody, clone HIB19, Alexa Fluor 647 conjugate (BioLegend)	–	–	–	–	–	–	–	–	67	1880	12	3.4	0.006	710	182	1780	3.1	1860
